From patent publication US9840693B2, “Polypeptide hydrogels and uses related thereto” (Emory University, priority 2014, dated 2017)
“Also recorded” adds a separate entry of the source.

Legend:
[1] = Self-assembly of peptides into hydrogel at physiologic pH and osmolarity; type: physicochemical; settings: for self-assembly into a hydrogel when mixed with peptide hydrogel R: mixed with R at a 1:10 ratio; for self-assemble at physiologic pH and osmolarity: peptide alone; for Self-Assembly: peptide alone at 1 % w/v
From the text: JAG-1 (CDDYYYGFGCNKFCRPR)(SEQ ID NO: 1) can be incorporated into the self-assembling peptides to generate bioactive scaffolds with the potential to regulate Notch signaling in a ligand density dependent manner. The self-assembling sequence RADA (or R) (RARADADARARADADA)(SEQ ID NO: 2) with a 7 glycine linker following the terminal alanine is followed by the active sequence of the Notch ligand Jagged-1 (JAG-1) to create the fusion peptide (RJ). As a control, the JAG-1 portion may be replaced with the scrambled sequence (RCGPDCFDNYGRYKYCF)(SEQ ID NO:4) (RS) with no known cell surface binding site can be used as a control to check for the specificity of JAG 1 in activating Notch-1 signaling. […] These peptide scaffolds self-assemble at physiological pH and osmolarity (in 295 mM sucrose solution) into nanofiber hydrogels. After synthesis, the peptides can be purified by high pressure liquid chromatography on reverse-phase columns. Purity can be assessed by HPLC and the presence of a correct composition by amino acid analysis.
The self-assembling peptide (R) and the peptides with Jag-1 (RJ) or scrambled (RS) attached are weighed out to create hydrogels of 1-3% w/v, i.e., hydrogels with varying % concentration from 1 to 3% w/v peptide wherein R is combined with RJ or RS in a ratio of 1:10.
A sucrose solution (295 mM) is added to the peptides and sonicated. The RJ or RS peptide solutions are mixed with the R solution at 1:10 and allowed to form the hydrogel. The time required to form the hydrogel depends on the concentration of the gel. In certain embodiments, the disclosure relates to the synthesis of self assembling peptides which contain the active ligand JAG-1 attached to it. This enables easy dose manipulation of JAG-1 to achieve Notch-1 activation.

[2] = Atomic force microscopy measurement of Young's modulus of hydrogels; type: physicochemical; settings: in comparison with unmodified hydrogels at both 1 and 2% w/v
Method: (§1) Peptides have been created containing a ligand for Notch-1 activation that self assembles into a hydrogel. For determination of swelling ratio, the hydrogels were created in a […] total volume and allowed to swell in 295 mM sucrose solution. After 24 h, the wet weight of the gels was measured. The gels were then lyophilized and the dry weight noted. Swelling ratio was calculated as the (wet weight−dry weight)/wet weight. […] The average Young's modulus for 1% and 2% hydrogels was 500 Pa and 1800 Pa respectively (FIG. 1A).
Cardiac progenitor cells (CPCs) were isolated from 2 month old male Sprague Dawley rats by digesting the heart with Collagenase followed by magnetic sorting for cKit positive cells. The CPCs were cultured on Ham's F12 supplemented with FBS, LIF, bFGF, L-Glutamine and antibiotics. Single cell cloning was performed by limiting dilution to obtain CPCs with >90% expression of cKit and the cardiac transcription factors nkx2-5 and gata-4. […] The Young's modulus of the hydrogels was determined using an MFP-3DBIO atomic force microscope (Asylum Research; Santa Barbara, Calif.), with a 4.74 μm diameter bead tippedsilicon nitride cantilever.

[3] = Swelling ratio of hydrogels; type: physicochemical; settings: n=3
Method: as §1

Notch1 [4] = experiment: Notch1 activation in CHO cells with Notch1-responsive YFP expression, 2D culture with peptide in media; type: cell-based; settings: media containing peptide at 40 μm, 48 h
Method: (§2) CHO cells with Notch1-responsive YFP expression were cultured in media containing 20 or 40 μm R, RS or RJ for 48 h. […] These cells were also cultured in 3D in 1-3% w/v hydrogels composed of R, RS or RJ for 48 h.

Notch1 [5] = experiment: Notch1 activation in CHO cells with Notch1-responsive YFP expression, 3D culture in hydrogels; type: cell-based; settings: 48 h
Method: as §2

[6] = tested on: Cardiac progenitor cells (CPCs); experiment: qPCR gene expression of CPCs cultured in hydrogels; type: cell-based, rat; settings: 48 h
Method: Cardiac progenitor cells (CPCs) were isolated from 2 month old male Sprague Dawley rats by digesting the heart with Collagenase followed by magnetic sorting for cKit positive cells. The CPCs were cultured on Ham's F12 supplemented with FBS, LIF, bFGF, L-Glutamine and antibiotics. Single cell cloning was performed by limiting dilution to obtain CPCs with >90% expression of cKit and the cardiac transcription factors nkx2-5 and gata-4. CPCs were cultured in self assembling hydrogels of various concentrations (1-3% w/v) with either empty, scrambled or JAG-1 peptide in 1:10 ratio for 48 hrs in Millicell Insets. qRT-PCRs were performed using Power SYBR green on the StepOne Plus Applied Biosystems machine. The Young's modulus of the hydrogels was determined using an MFP-3DBIO atomic force microscope (Asylum Research; Santa Barbara, Calif.), with a 4.74 μm diameter bead tippedsilicon nitride cantilever.
CPCs were clonally expanded and characterized to be >96% Notch1+, >90% c-Kit+, nkx2-5+(nk2 homeobox 5) and gata4+(GATA binding protein 4). CPCs were cultured in 1 or 2% (w/v) SAP hydrogels (1R, 1RS, 1RJ or 2R, 2RS, 2RJ) for 48 h.

[7] = tested on: embryoid bodies (EBs) from mouse embryonic stem cells; experiment: qPCR gene expression of mouse embryoid bodies cultured in 1% hydrogels; type: cell-based; settings: mouse EBs in 1% hydrogels
Method: To determine if gene expression changes in response to hydrogel-mediated Notch1 activation were conserved between stem/progenitor cells, day 2 embryoid bodies (EBs) from mouse embryonic stem cells were cultured in low concentration (1%) hydrogels for 48 h.

Substance	self-assembly into a hydrogel when mixed with peptide hydrogel R [1]	self-assemble at physiologic pH and osmolarity [1]	Self-Assembly [1]	effect of addition of peptide to the SAP on Young's modulus [2]	effect of peptide addition on network structure (swelling ratio) [3]	other results
CDDYYYGFGCNKFCRPR [JAG-1]	self-assembles into a hydrogel	do not self-assemble				
H2N-RARADADARARADADA-OH (H-RARADADARARADADA-OH) [unmodified/empty control]			yes			
RARADADARARADADA(G7)(JAG-1) (RARADADARARADADAGGGGGGGCDDYYYGFGCNKFCRPR) [RJ]			no	did not alter the Young's modulus	no significant effect	Notch1 activation (YFP expression) (Notch1 [4]): significant increase; Notch1 activation (YFP expression) (Notch1 [5]; 2% w/v hydrogel): maximum Notch1 activation; also recorded: highest levels of Notch1 activation; Notch1 activation (YFP expression) (Notch1 [5]; further increase to 3% w/v hydrogel): did not promote Notch1 activation; Notch1 signaling in CPCs ([6]; 1% hydrogels): activates Notch1 signaling; Notch1 signaling in CPCs ([6]; 2% hydrogels): activates Notch1 signaling; endothelial and smooth muscle gene expression ([6]; CPCs in 1% hydrogels): promotes; expression of Hey1 (Notch1 downstream target) ([6]; CPCs in 1 or 2% hydrogels, qPCR): increased expression; cardiac gene expression ([6]; CPCs in 2% hydrogels): promotes; endothelial and smooth muscle gene expression [7]: promotes
RARADADARARADADA(G7)(SCR-1) (RARADADARARADADAGGGGGGGRCGPDCFDNYGRYKYCF) [RS, reference compound]			no	did not alter the Young's modulus	no significant effect	
RCGPDCFDNYGRYKYCF [SCR-1]	self-assembles into a hydrogel	do not self-assemble				
